Experimental data: article doi:10.1101/2025.07.08.663041

Tests used:
Caveolin-1 I121C 98W = Caveolin-1 I121C 98W (UniProt Q03135)
Caveolin-1 L125C 98W = Caveolin-1 L125C 98W (UniProt Q03135)

Substance: Caveolin-1 I121C 98W (from UniProt Q03135 1-178) (natural protein)
- stoichiometry N (Caveolin-1 I121C 98W): 2

Substance: Caveolin-1 L125C 98W (from UniProt Q03135 1-178) (natural protein)
- stoichiometry N (Caveolin-1 L125C 98W): 2
